The values that follow come from article PMC3778555.

Common to all, as to assay: EMSA
(In general: Mobility shift assays separate free from complexed probe on a gel.)

Data set [1] concerns the target T1, ΔN20C17-HMGA1a (human, UniProt P17096 21-91).
Data set [2] concerns the target T2, ΔN20C17-HMGA1b (human, UniProt P17096-2 21-80).
Data set [3] concerns the target T1, ΔN20C17-HMGA1a. The source holds these as a separate data set.
The target of data set [4] is T1, ΔN20C17-HMGA1a. This is another data set of the same source.
Data set [5] addresses T2, ΔN20C17-HMGA1b. This is another data set of the same source.
Data set [6] concerns the target T1, ΔN20C17-HMGA1a. The source holds these as a separate data set.
Data set [7] deals with T1, ΔN20C17-HMGA1a. The source holds these as a separate data set.
Data set [8] has as its target T1, ΔN20C17-HMGA1a. This is another data set of the same source.

Like-named read-outs stand apart in the source and are kept apart here.

B1: A5T5-DNA (dsDNA)
DNA 1: CGAAAAATTTTTCG
DNA 2: CGAAAAATTTTTCG
On to B1, for which the binding result with ΔN20C17-HMGA1a [1] and with ΔN20C17-HMGA1b [2] was “binds” each time.

B2: A9T9-DNA (dsDNA)
DNA 1: CGAAAAAAAAATTTTTTTTTCG
DNA 2: CGAAAAAAAAATTTTTTTTTCG
On to B2, for which the binding result in the data set with ΔN20C17-HMGA1a [3] is “binds”.

B3: A18-DNA (dsDNA)
DNA 1: CCCAAAAAAAAAAAAAAAAAACC
DNA 2: GGTTTTTTTTTTTTTTTTTTGGG
Take B3: the binding result with ΔN20C17-HMGA1a [4] is “binds”.

B4: A19-DNA (dsDNA)
DNA 1: CCCAAAAAAAAAAAAAAAAAAACC
DNA 2: GGTTTTTTTTTTTTTTTTTTTGGG
Take B4: the binding result with ΔN20C17-HMGA1b [5] and in the data set with ΔN20C17-HMGA1a [6] was “binds” in each case.

B5: A5-DNA (dsDNA)
DNA 1: GGCCCCGCGAAAAACCCGGCGGG
DNA 2: CCCGCCGGGTTTTTCGCGGGGCC
Consider B5, for which, in the data set with ΔN20C17-HMGA1a [7], the binding result is “binds”.

B6: T9A9-DNA (dsDNA)
DNA 1: GCTTTTTTTTTAAAAAAAAAGC
DNA 2: GCTTTTTTTTTAAAAAAAAAGC
Take B6: the binding result with ΔN20C17-HMGA1a [8] is recorded as “binds”.
